# Test results reported in article PMC9190010, “Giardia intestinalis thymidine kinase is a high-affinity enzyme crucial for DNA synthesis and an exploitable target for drug discovery” (The Journal of Biological Chemistry, 2022).
# T1: G. intestinalis thymidine kinase (TK) (Giardia duodenalis, UniProt A8BRU1)
# T1 construct: gene GL50803_008364; full length, 392 residues, 42 kDa, monomer (mass photometry); expressed in E. coli BL21(DE3)pLysS from pET-Z as His6-Z fusion, tag removed with TEV protease; two TK1-like domains (1-210 active, 211-392 degenerate)
# T1 sequence (A8BRU1 1-392): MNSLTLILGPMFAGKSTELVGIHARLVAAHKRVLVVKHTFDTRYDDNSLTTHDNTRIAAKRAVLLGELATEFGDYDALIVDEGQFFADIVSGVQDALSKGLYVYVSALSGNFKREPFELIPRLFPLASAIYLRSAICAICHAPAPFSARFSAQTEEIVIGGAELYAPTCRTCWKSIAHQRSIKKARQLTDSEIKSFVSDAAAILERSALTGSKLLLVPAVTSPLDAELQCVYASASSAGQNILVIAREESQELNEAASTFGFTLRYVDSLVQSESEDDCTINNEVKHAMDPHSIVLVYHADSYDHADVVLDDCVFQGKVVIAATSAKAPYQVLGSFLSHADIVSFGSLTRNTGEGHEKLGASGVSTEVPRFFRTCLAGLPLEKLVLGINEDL
# Key:
# [1] = target: T1, G. intestinalis thymidine kinase (TK); assay: thymidine kinase assay (phosphorylation of the nucleoside); type: biochemical; settings: 2 mM ATP, 5 mM MgCl2, 0.5 mM DTT, 100 mM potassium acetate, 50 mM Tris-HCl pH 7.5, 37 °C
# From the text: (§1) thymidine kinase assay (phosphorylation of the nucleoside) on G. intestinalis thymidine kinase (TK)
# [2] = target: T1, G. intestinalis thymidine kinase (TK); assay: radiometric [[…]'-3H]thymidine phosphorylation, DE81 / Hybond-XL filter assay; type: biochemical
# [3] = substrate: Cc1cn([C@H]2C=C[C@@H](CO)O2)c(=O)[nH]c1=O; assay: thymidine kinase assay (phosphorylation of the nucleoside); type: biochemical, Giardia duodenalis; settings: 2 mM ATP, 5 mM MgCl2, 0.5 mM DTT, 100 mM potassium acetate, 50 mM Tris-HCl pH 7.5, 37 °C
# From the text: as §1
# [4] = substrate: Cc1cn([C@@H]2O[C@H](CO)[C@@H](O)[C@@H]2O)c(=O)[nH]c1=O; assay: as above; type: biochemical, Giardia duodenalis; settings: 2 mM ATP, 5 mM MgCl2, 0.5 mM DTT, 100 mM potassium acetate, 50 mM Tris-HCl pH 7.5, 37 °C
# From the text: as §1
# [5] = substrate: O=c1ccn([C@H]2C[C@H](O)[C@@H](CO)O2)c(=O)[nH]1; assay: as above; type: biochemical, Giardia duodenalis; settings: 2 mM ATP, 5 mM MgCl2, 0.5 mM DTT, 100 mM potassium acetate, 50 mM Tris-HCl pH 7.5, 37 °C
# From the text: as §1
# purified protein [6] = substrate: Nc1ncnc2c1ncn2[C@@H]1O[C@H](COP(=O)(O)OP(=O)(O)OP(=O)(O)O)[C@@H](O)[C@H]1O; assay: purified protein; type: biochemical, Giardia duodenalis; settings: phosphate donor varied, 1 μM thymidine, 10 mM MgCl2, pH 7.5, 37 °C
# purified protein [7] = substrate: Nc1ccn([C@@H]2O[C@H](COP(=O)(O)OP(=O)(O)OP(=O)(O)O)[C@@H](O)[C@H]2O)c(=O)n1; assay: purified protein; type: biochemical, Giardia duodenalis; settings: phosphate donor varied, 1 μM thymidine, 10 mM MgCl2, pH 7.5, 37 °C
# purified protein [8] = substrate: O=c1ccn([C@@H]2O[C@H](COP(=O)(O)OP(=O)(O)OP(=O)(O)O)[C@@H](O)[C@H]2O)c(=O)[nH]1; assay: purified protein; type: biochemical, Giardia duodenalis; settings: phosphate donor varied, 1 μM thymidine, 10 mM MgCl2, pH 7.5, 37 °C
# purified protein [9] = substrate: Nc1nc2c(ncn2[C@@H]2O[C@H](COP(=O)(O)OP(=O)(O)OP(=O)(O)O)[C@@H](O)[C@H]2O)c(=O)[nH]1; assay: purified protein; type: biochemical, Giardia duodenalis; settings: phosphate donor varied, 1 μM thymidine, 10 mM MgCl2, pH 7.5, 37 °C
molecule,measurement,setting,value
Cc1cn([C@H]2C[C@H](N=[N+]=[N-])[C@@H](CO)O2)c(=O)[nH]c1=O [AZT],Km (μM),[1],0.044 ± 0.002 (12%) μM
Cc1cn([C@H]2C[C@H](O)[C@@H](COP(=O)(O)OP(=O)(O)OP(=O)(O)O)O2)c(=O)[nH]c1=O [dTTP],IC50,[2],30 ± 3 µM
"G. intestinalis thymidine kinase (TK) (Giardia lamblia ATCC 50803) (protein, full length, 392 residues, 42 kDa, monomer (mass photometry); expressed in E. coli BL21(DE3)pLysS from pET-Z as His6-Z fusion, tag removed with TEV protease; two TK1-like domains (1-210 active, 211-392 degenerate)) MNSLTLILGPMFAGKSTELVGIHARLVAAHKRVLVVKHTFDTRYDDNSLTTHDNTRIAAKRAVLLGELATEFGDYDALIVDEGQFFADIVSGVQDALSKGLYVYVSALSGNFKREPFELIPRLFPLASAIYLRSAICAICHAPAPFSARFSAQTEEIVIGGAELYAPTCRTCWKSIAHQRSIKKARQLTDSEIKSFVSDAAAILERSALTGSKLLLVPAVTSPLDAELQCVYASASSAGQNILVIAREESQELNEAASTFGFTLRYVDSLVQSESEDDCTINNEVKHAMDPHSIVLVYHADSYDHADVVLDDCVFQGKVVIAATSAKAPYQVLGSFLSHADIVSFGSLTRNTGEGHEKLGASGVSTEVPRFFRTCLAGLPLEKLVLGINEDL",Km,[3],39 ± 13 µM
same,Vmax,[3],0.25 µmol/min
same,kcat,[3],0.17 s⁻¹
same,kcat/Km,[3],4500 M⁻¹ s⁻¹
same,Km,[4],425 ± 47 µM
same,Vmax,[4],0.68 µmol/min
same,kcat,[4],0.48 s⁻¹
same,kcat/Km,[4],1100 M⁻¹ s⁻¹
same,Km,[5],5.3 ± 1.3 µM
same,Vmax,[5],1.02 µmol/min
same,kcat,[5],0.67 s⁻¹
same,kcat/Km,[5],134000 M⁻¹ s⁻¹
same,Km,purified protein [6],467 ± 29 µM
same,Vmax,purified protein [6],0.93 µmol/min
same,kcat,purified protein [6],0.65 s⁻¹
same,kcat/Km,purified protein [6],1400 M⁻¹ s⁻¹
same,Km,purified protein [7],2396 ± 199 µM
same,Vmax,purified protein [7],1.7 µmol/min
same,kcat,purified protein [7],1.19 s⁻¹
same,kcat/Km,purified protein [7],500 M⁻¹ s⁻¹
same,Km,purified protein [8],1927 ± 269 µM
same,Vmax,purified protein [8],1.66 µmol/min
same,kcat,purified protein [8],1.16 s⁻¹
same,kcat/Km,purified protein [8],600 M⁻¹ s⁻¹
same,Km,purified protein [9],1303 ± 78 µM
same,Vmax,purified protein [9],2.41 µmol/min
same,kcat,purified protein [9],1.69 s⁻¹
same,kcat/Km,purified protein [9],1300 M⁻¹ s⁻¹
